Target: T1, FtsQ (Escherichia coli, UniProt P06136 1-276)
T1 construct: FtsQ of Escherichia coli
Assay: not stated; unpublished results (Luirink and den Blaauwen); method not given

T1 sequence (P06136 whole entry): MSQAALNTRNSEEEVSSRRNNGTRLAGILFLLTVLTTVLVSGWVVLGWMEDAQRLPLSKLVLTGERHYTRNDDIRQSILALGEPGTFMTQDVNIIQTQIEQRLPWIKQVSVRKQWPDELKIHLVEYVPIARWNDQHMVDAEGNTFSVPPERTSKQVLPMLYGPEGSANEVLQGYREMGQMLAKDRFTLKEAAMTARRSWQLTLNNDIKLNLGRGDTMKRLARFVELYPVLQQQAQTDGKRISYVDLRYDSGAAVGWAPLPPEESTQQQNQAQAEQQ

B1: FtsB (natural protein, Escherichia coli, UniProt P0A6S5 1-103, looked up)
chain: MGKLTLLLLAILVWLQYSLWFGKNGIHDYTRVNDDVAAQQATNAKLKARNDQLFAEIDDLNGGQEALEERARNELSMTRPGETFYRLVPDASKRAQSAGQNNR
notes: FtsB of Escherichia coli
With B1 the “stoichiometry N” value was 1.
